Laboratory results published in publication PMC10686824, “Bacterial cGAS senses a viral RNA to initiate immunity”.

Target: T1, His6-MBP-Ssc-CdnE03 (UniProt P0DXA6 1-324)
T1 sequence: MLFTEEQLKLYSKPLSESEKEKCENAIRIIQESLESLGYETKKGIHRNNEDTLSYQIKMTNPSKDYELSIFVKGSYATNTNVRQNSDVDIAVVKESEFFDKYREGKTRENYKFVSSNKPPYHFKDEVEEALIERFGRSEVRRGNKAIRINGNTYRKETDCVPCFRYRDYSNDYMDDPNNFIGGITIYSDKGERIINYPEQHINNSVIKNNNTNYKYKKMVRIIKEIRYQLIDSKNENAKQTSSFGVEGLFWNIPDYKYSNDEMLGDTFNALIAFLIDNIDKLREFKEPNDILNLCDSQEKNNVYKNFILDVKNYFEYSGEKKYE
Assay: pull-down; total RNA of infected cells; EMSA: 50 mM CAPSO pH 9.4, 50 mM KCl, 5 mM Mg acetate, 1 mM DTT, 4 C 25 min, 1 uM RNA, 2% agarose in 1x TB; pull-down on cobalt resin, buffer not given in material
Conditions: protein: recombinant, tags: His6-MBP

B1: cabRNA PhiJ4 (49 nt) (structured_RNA)
RNA: UUCCGGAAGAUGAUUAGUCAUGUAUGAAAUACUUGAUCUAAAAAAUAAA
B1: binds (hairpin (predicted)).

B2: 200-nt RNA from 80alpha-vir(cabRNA57) (structured_RNA)
RNA: AGAGGAGAACCUCAAGAGGCUUACAGUAAGAAAUAUGACCAUUUAAACGAUGAAGUGGAAAAAGAGGUUACUUACACAAUCACACCAACUUUUGAAGAGCGUCAGAGAUCUAUUGACCACAUACUAAAAGUUCAUGGUGCGUAUAUCGACAAAAAAGAAAUUACUCAGAAGAAUAUUGAGAUUAAUAUUGGUGAGUACGA
B2: binds.

B3: cabRNA PhiJ1/2 (34 nt) (structured_RNA)
RNA: GAAUGUUAUGGCAAUGCUACUAAGUCAGCUGUGC
B3: binds (hairpin (predicted)).

B4: 80-nt RNA from 80alpha-vir(cabRNA100) (structured_RNA)
RNA: AUGGUGCGUAUAUCGACAAAAAAGAAAUUACUCAGAAGAAUAUUGAGAUUAAUAUUGGUGAGUACGAUGACGAAAGUUAA
B4: binds.
